We go through ten molecules from patent US20120135923A1 (IPSEN PHARMA S A S, published 2012).

B1: Ac-hCha-c(Asp-His-D-Phe-Arg-Trp-Gaba-Lys)-NH2 (peptide)
peptide: Ac-[hCha]DH[dF]RW[GABA]K-NH2
modifications: lactam 2-8
SMILES: CC(=O)N[C@@H](CCC1CCCCC1)C(=O)N[C@H]1CC(=O)NCCCC[C@@H](C(N)=O)NC(=O)CCCNC(=O)[C@H](Cc2c[nH]c3ccccc23)NC(=O)[C@H](CCCNC(=N)N)NC(=O)[C@@H](Cc2ccccc2)NC(=O)[C@H](Cc2c[nH]cn2)NC1=O
B2: Ac-Nle-c(Cys-D-Ala-His-D-Phe-Arg-Trp-Apn-Cys)-NH2 (peptide)
peptide: Ac-[Nle]C[dA]H[dF]RW[Ava]C-NH2
modifications: disulfide 2-9
SMILES: CCCC[C@H](NC(C)=O)C(=O)N[C@H]1CSSC[C@@H](C(N)=O)NC(=O)CCCCNC(=O)[C@H](Cc2c[nH]c3ccccc23)NC(=O)[C@H](CCCNC(=N)N)NC(=O)[C@@H](Cc2ccccc2)NC(=O)[C@H](Cc2c[nH]cn2)NC(=O)[C@@H](C)NC1=O
B3: Ac-Nle-c(Asp-His-D-Phe-Arg-Trp-β-Ala-Lys)-NH2 (peptide)
peptide: Ac-[Nle]DH[dF]RW[βAla]K-NH2
modifications: lactam 2-8
SMILES: CCCC[C@H](NC(C)=O)C(=O)N[C@H]1CC(=O)NCCCC[C@@H](C(N)=O)NC(=O)CCNC(=O)[C@H](Cc2c[nH]c3ccccc23)NC(=O)[C@H](CCCNC(=N)N)NC(=O)[C@@H](Cc2ccccc2)NC(=O)[C@H](Cc2c[nH]cn2)NC1=O

Where “and” joins values, the source holds several entries; their conditions need not be identical. Equal values may be shown once. Bridge positions count the residues as written; N and C are the ends. Square brackets hold non-standard residues; d marks the D form. hCha = N[C@@H](CCC1CCCCC1)C(=O)O; dChg = N[C@@H](C(=O)O)C1CCCCC1; dTle = CC(C)(C)[C@@H](N)C(=O)O; Chg = N[C@H](C(=O)O)C1CCCCC1; Nle = CCCC[C@H](N)C(=O)O; Ava = NCCCCC(=O)O; GABA = NCCCC(=O)O; βAla = NCCC(=O)O

In the first assay the target is T1, hMC1-R (human, UniProt Q01726 1-317).
T1 construct: whole, on cells; Assayed as membranes of CHO-K1 cells expressing the receptor; also called hMC-R receptor subtype 1; melanocyte-specific receptor (MC1-R)
T1 sequence (Q01726 whole entry): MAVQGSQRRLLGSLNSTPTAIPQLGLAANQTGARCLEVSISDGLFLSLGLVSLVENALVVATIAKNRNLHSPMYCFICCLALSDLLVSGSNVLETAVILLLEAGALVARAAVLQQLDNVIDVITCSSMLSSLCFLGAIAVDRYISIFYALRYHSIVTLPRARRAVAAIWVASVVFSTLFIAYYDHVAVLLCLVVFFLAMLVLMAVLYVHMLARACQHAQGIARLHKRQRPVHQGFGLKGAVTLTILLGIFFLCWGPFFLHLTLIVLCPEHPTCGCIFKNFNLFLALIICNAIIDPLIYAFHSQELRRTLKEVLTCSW
The assay can be described thus: competition with [125I]-NDP-α-MSH, CHO-K1 membranes. On the procedure: (§1) Cellular membranes used for the in vitro receptor binding assays were obtained from transgenic CHO-K1 cells stably expressing hMC-R receptor subtypes 1, 3, 4 or 5. […] The pellets were resuspended in the same buffer and centrifuged at 50,000 g for 10 minutes at approximately 4° C. The washed pellets containing the cellular membranes were stored at approximately −80° C.
(§2) Competitive inhibition of [¹²⁵I](Tyr²)-(Nle⁴-D-Phe⁷)α-MSH ([¹²⁵I]-NDP-α-MSH, Amersham Biosciences®) binding was carried out in polypropylene 96 well plates. Cell membranes (1-10 μg protein/well) prepared as described above were incubated in 50 mM Tris-HCl at pH 7.4 containing 0.2% bovine serum albumin (BSA), 5 mM MgCl₂, 1 mM CaCl₂ and 0.1 mg/mL bacitracin, with increasing concentrations of the test compound and 0.1-0.3 nM […] for approximately 90-120 minutes at approximately 37° C. Bound [¹²⁵I]-NDP-α-MSH ligand was separated from free [¹²⁵I]-NDP-α-MSH by filtration through GF/C glass fiber filter plates (Unifilter®; Packard) presoaked with 0.1% (w/v) polyethylenimine (PEI), using a Packard Filtermate® harvester. Filters were washed three times with 50 mM Tris-HCl at pH 7.4 at a temperature of approximately 0-4° C. and then assayed for radioactivity using a Packard Topcount® scintillation counter. Binding data were analyzed by computer-assisted non-linear regression analysis (XL fit; IDBS).
Regarding Ac-[dChg]DH[dF]RW[GABA]K-NH2 (lactam 2-8) [Ac-D-Chg-c(Asp-His-D-Phe-Arg-Trp-Gaba-Lys)-NH2], the Ki was 0.227 nM.

Ac-[Nle]C[dTle]H[dF]RWC-NH2 (disulfide 2-8) [Ac-Nle-c(Cys-D-Tle-His-D-Phe-Arg-Trp-Cys)-NH2] displayed a Ki of 12 nM.

Ac-RDH[dF]RWAK-NH2 (lactam 2-8) [Ac-Arg-c(Asp-His-D-Phe-Arg-Trp-Ala-Lys)-NH2] yielded a Ki of 0.68 nM.

Take Ac-[Chg]DH[dF]RW[GABA]K-NH2 (lactam 2-8) [Ac-Chg-c(Asp-His-D-Phe-Arg-Trp-Gaba-Lys)-NH2]: the affinity, expressed as Ki, was 0.884 nM.

Regarding B1, the affinity, expressed as Ki, was 0.721 nM.

B2: the Ki amounted to 1.1 nM.

With B3, the affinity, expressed as Ki, was 0.0996 nM.

For Ac-[Nle]C[dA]H[dF]RW[GABA]C-NH2 (disulfide 2-9) [Ac-Nle-c(Cys-D-Ala-His-D-Phe-Arg-Trp-Gaba-Cys)-NH2], the Ki was 0.848 nM and 0.536 nM.

Consider Ac-[Nle]C[dA]H[dF]RW[βAla]C-NH2 (disulfide 2-9) [Ac-Nle-c(Cys-D-Ala-His-D-Phe-Arg-Trp-β-Ala-Cys)-NH2], for which the Ki was 0.995 nM and 1 nM.

As for Ac-[Nle]DH[dF]RW[GABA]K-NH2 (lactam 2-8) [Ac-Nle-c(Asp-His-D-Phe-Arg-Trp-Gaba-Lys)-NH2], the Ki was 0.0506 nM.

The next assay deals with T2, hMC5-R (human, UniProt P33032 1-325).
T2 construct: whole, on cells; Assayed as membranes of CHO-K1 cells expressing the receptor; also called hMC-R receptor subtype 5; melanocortin-5 receptor (MC5-R)
T2 sequence (P33032 whole entry): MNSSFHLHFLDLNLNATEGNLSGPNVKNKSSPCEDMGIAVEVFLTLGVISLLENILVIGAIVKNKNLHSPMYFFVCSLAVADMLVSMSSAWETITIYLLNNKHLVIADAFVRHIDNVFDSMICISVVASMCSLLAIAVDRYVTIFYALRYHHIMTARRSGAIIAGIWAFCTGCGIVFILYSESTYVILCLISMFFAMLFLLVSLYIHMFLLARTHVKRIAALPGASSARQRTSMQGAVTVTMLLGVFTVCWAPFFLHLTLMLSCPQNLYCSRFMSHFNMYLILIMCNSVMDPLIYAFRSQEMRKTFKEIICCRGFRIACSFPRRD
The assay is described as above. On the procedure: as §1, §2
Molecule Ac-[dChg]DH[dF]RW[GABA]K-NH2 (lactam 2-8) [Ac-D-Chg-c(Asp-His-D-Phe-Arg-Trp-Gaba-Lys)-NH2] registered a Ki of 164 nM.

Consider Ac-[Nle]C[dTle]H[dF]RWC-NH2 (disulfide 2-8) [Ac-Nle-c(Cys-D-Tle-His-D-Phe-Arg-Trp-Cys)-NH2], for which the affinity corresponds to a Ki of 40 nM.

As to Ac-RDH[dF]RWAK-NH2 (lactam 2-8) [Ac-Arg-c(Asp-His-D-Phe-Arg-Trp-Ala-Lys)-NH2], the affinity, expressed as Ki, was 783 nM.

Ac-[Chg]DH[dF]RW[GABA]K-NH2 (lactam 2-8) [Ac-Chg-c(Asp-His-D-Phe-Arg-Trp-Gaba-Lys)-NH2] yielded a Ki of 609 nM.

For the molecule B1, affinity was put at a Ki of 747 nM.

As to B2, affinity was put at a Ki of 859 nM.

Take B3: the Ki worked out at 10.9 nM.

For Ac-[Nle]C[dA]H[dF]RW[GABA]C-NH2 (disulfide 2-9) [Ac-Nle-c(Cys-D-Ala-His-D-Phe-Arg-Trp-Gaba-Cys)-NH2], the Ki is 956 nM and 358 nM.

For the molecule Ac-[Nle]C[dA]H[dF]RW[βAla]C-NH2 (disulfide 2-9) [Ac-Nle-c(Cys-D-Ala-His-D-Phe-Arg-Trp-β-Ala-Cys)-NH2], the Ki is 766 nM and 496 nM.

The molecule Ac-[Nle]DH[dF]RW[GABA]K-NH2 (lactam 2-8) [Ac-Nle-c(Asp-His-D-Phe-Arg-Trp-Gaba-Lys)-NH2] came in with a Ki of 16.3 nM.

Another assay deals with T3, hMC3-R (human, UniProt P41968 1-323).
T3 construct: whole, on cells; Assayed as membranes of CHO-K1 cells expressing the receptor; also called hMC-R receptor subtype 3; melacortin-3 (MC3-R)
T3 sequence (P41968 whole entry): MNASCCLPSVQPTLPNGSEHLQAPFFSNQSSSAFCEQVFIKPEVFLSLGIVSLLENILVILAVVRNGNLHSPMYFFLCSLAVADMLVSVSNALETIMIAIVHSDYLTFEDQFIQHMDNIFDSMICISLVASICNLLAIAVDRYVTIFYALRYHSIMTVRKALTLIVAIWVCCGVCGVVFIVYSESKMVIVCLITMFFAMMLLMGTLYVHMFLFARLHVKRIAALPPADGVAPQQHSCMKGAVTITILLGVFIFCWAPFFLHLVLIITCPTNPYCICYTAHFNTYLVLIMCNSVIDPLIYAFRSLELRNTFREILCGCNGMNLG
The assay is described as above. Here is the method:
as §1, §2
Consider Ac-[dChg]DH[dF]RW[GABA]K-NH2 (lactam 2-8) [Ac-D-Chg-c(Asp-His-D-Phe-Arg-Trp-Gaba-Lys)-NH2], for which the Ki was 14.5 nM.

For the molecule Ac-[Nle]C[dTle]H[dF]RWC-NH2 (disulfide 2-8) [Ac-Nle-c(Cys-D-Tle-His-D-Phe-Arg-Trp-Cys)-NH2], the Ki was found to be 85.8 nM.

Ac-RDH[dF]RWAK-NH2 (lactam 2-8) [Ac-Arg-c(Asp-His-D-Phe-Arg-Trp-Ala-Lys)-NH2]: the affinity corresponds to a Ki of 20.7 nM.

In turn, Ac-[Chg]DH[dF]RW[GABA]K-NH2 (lactam 2-8) [Ac-Chg-c(Asp-His-D-Phe-Arg-Trp-Gaba-Lys)-NH2] showed a Ki of 223 nM.

As for B1, affinity was put at a Ki of 93.5 nM.

In the case of B2, the Ki is 228 nM.

B3 displayed a Ki of 9320 nM.

Regarding Ac-[Nle]C[dA]H[dF]RW[GABA]C-NH2 (disulfide 2-9) [Ac-Nle-c(Cys-D-Ala-His-D-Phe-Arg-Trp-Gaba-Cys)-NH2], the Ki is 184 nM and 169 nM.

In the case of Ac-[Nle]C[dA]H[dF]RW[βAla]C-NH2 (disulfide 2-9) [Ac-Nle-c(Cys-D-Ala-His-D-Phe-Arg-Trp-β-Ala-Cys)-NH2], the Ki is 287 nM and 227 nM.

In turn, Ac-[Nle]DH[dF]RW[GABA]K-NH2 (lactam 2-8) [Ac-Nle-c(Asp-His-D-Phe-Arg-Trp-Gaba-Lys)-NH2] registered a Ki of 9.89 nM.

In the next assay the target is T4, hMC4-R (human, UniProt P32245 1-332).
T4 construct: whole, on cells; Assayed as membranes of CHO-K1 cells expressing the receptor; also called hMC-R receptor subtype 4; melanocortin-4 (MC4-R)
T4 sequence (P32245 whole entry): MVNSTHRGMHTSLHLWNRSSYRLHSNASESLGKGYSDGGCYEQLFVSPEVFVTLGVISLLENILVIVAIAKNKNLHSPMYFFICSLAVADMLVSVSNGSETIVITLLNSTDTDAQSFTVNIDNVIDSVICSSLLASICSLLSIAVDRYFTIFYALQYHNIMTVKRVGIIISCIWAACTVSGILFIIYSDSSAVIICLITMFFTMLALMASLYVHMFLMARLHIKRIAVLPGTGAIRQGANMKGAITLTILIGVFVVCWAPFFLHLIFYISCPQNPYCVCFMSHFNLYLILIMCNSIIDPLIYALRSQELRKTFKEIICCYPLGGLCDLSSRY
The assay is described as above. Here is the method: as §1, §2
Ac-[dChg]DH[dF]RW[GABA]K-NH2 (lactam 2-8) [Ac-D-Chg-c(Asp-His-D-Phe-Arg-Trp-Gaba-Lys)-NH2] yielded a Ki of 2.99 nM.

Molecule Ac-[Nle]C[dTle]H[dF]RWC-NH2 (disulfide 2-8) [Ac-Nle-c(Cys-D-Tle-His-D-Phe-Arg-Trp-Cys)-NH2] showed a Ki of 11.2 nM.

In turn, Ac-RDH[dF]RWAK-NH2 (lactam 2-8) [Ac-Arg-c(Asp-His-D-Phe-Arg-Trp-Ala-Lys)-NH2] had a Ki of 1.01 nM.

Molecule Ac-[Chg]DH[dF]RW[GABA]K-NH2 (lactam 2-8) [Ac-Chg-c(Asp-His-D-Phe-Arg-Trp-Gaba-Lys)-NH2] had a Ki of 22.5 nM.

Regarding B1, the Ki stood at 56 nM.

B2 registered a Ki of 7.58 nM.

Turning to B3, the Ki worked out at 0.617 nM.

Ac-[Nle]C[dA]H[dF]RW[GABA]C-NH2 (disulfide 2-9) [Ac-Nle-c(Cys-D-Ala-His-D-Phe-Arg-Trp-Gaba-Cys)-NH2]: the Ki is 3.76 nM and 3.12 nM.

Take Ac-[Nle]C[dA]H[dF]RW[βAla]C-NH2 (disulfide 2-9) [Ac-Nle-c(Cys-D-Ala-His-D-Phe-Arg-Trp-β-Ala-Cys)-NH2]: the affinity, expressed as Ki, was 5.55 nM.

Ac-[Nle]DH[dF]RW[GABA]K-NH2 (lactam 2-8) [Ac-Nle-c(Asp-His-D-Phe-Arg-Trp-Gaba-Lys)-NH2] gave an inhibition constant (Ki) of 1.04 nM.
